Data taken from article PMC11389850.

Molecular target: BbmrR (Brevibacillus borstelensis)
Experiment: SEC; analytical size-exclusion chromatography, Superdex 200 10/300, 50 mM phosphate buffer, 500 mM NaCl, pH 7.5, 100 uL sample injected; column calibrated with LMW/HMW gel-filtration kits

stoichiometry N: 2
Substance: BbmrR (natural protein)
